Assay [1] has as its target purified recombinant human insulin receptor (either with or without exon 11) (human) (UniProt P06213). The experiment in a line: SPA competition vs A14Tyr[125I]-human insulin on recombinant human insulin receptor, relative to human insulin, 0% HSA.
Assay [2] shares this target. Nature of the assay: SPA competition vs A14Tyr[125I]-human insulin on recombinant human insulin receptor, relative to human insulin, 4.5% HSA in buffer.

Our source for the Relative IR-A affinity (@ 0% HSA) and Relative IR-A affinity (@ 4.5% HSA) values is patent US20190112348A1.

purified recombinant human insulin receptor (either with or without exon 11) (human), sequence (P06213 other isoform, or with tags, fused parts or gaps limits assumed, form in doubt): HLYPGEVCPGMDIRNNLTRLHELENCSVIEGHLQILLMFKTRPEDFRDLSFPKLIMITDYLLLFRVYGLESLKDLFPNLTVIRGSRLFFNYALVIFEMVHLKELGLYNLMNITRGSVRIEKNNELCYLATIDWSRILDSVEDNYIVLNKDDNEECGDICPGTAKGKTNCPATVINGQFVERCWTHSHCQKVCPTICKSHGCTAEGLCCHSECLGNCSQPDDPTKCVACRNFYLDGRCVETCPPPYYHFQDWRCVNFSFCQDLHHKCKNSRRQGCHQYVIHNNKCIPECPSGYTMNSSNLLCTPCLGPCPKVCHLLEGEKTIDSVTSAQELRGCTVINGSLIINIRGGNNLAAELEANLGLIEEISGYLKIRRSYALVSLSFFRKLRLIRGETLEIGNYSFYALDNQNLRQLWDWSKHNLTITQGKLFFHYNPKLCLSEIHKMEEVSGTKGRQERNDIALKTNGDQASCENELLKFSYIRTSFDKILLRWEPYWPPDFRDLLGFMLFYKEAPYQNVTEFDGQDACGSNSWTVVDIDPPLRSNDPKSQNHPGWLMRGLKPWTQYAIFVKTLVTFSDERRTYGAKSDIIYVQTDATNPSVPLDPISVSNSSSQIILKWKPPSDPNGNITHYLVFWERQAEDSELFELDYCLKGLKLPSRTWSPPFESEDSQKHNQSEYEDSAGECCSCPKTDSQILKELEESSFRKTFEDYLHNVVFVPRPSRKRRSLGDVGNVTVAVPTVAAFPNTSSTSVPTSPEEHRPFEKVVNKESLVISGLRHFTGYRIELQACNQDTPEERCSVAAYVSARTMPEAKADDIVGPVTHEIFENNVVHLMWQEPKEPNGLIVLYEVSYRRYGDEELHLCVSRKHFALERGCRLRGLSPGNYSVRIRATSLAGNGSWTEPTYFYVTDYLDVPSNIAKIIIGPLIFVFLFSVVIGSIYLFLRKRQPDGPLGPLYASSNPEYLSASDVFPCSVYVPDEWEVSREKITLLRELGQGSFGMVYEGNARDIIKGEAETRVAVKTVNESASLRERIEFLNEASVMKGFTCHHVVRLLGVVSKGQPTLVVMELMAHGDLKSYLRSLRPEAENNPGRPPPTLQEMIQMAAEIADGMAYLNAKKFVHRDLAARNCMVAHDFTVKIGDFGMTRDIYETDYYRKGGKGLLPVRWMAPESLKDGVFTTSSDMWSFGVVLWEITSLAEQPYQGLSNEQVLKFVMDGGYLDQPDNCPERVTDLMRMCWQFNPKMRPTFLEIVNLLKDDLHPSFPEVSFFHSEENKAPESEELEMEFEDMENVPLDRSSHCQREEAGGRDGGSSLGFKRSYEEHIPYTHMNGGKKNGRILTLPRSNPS

As to “A14E, B25H, B27K(N^εOctadecanedioyl-γGlu-OEG-OEG), desB28, desB29, desB30 Human Insulin (from UniProt P01308 90-110; P01308 25-51) (ligand)”, the Relative IR-A affinity (@ 0% HSA) in assay [1] was 1.9%. For the same substance, the Relative IR-A affinity (@ 4.5% HSA) in assay [2] came out at 0.08%. Regarding “A14E, B25H, desB27, B29K(N^εOctadecanedioyl-γGlu-OEG-OEG), desB30 Human Insulin (from UniProt P01308 90-110; P01308 25-50; P01308 52-53) (ligand)”, the Relative IR-A affinity (@ 0% HSA) in assay [1] amounted to 2.5%.
